Assay results taken from publication PMC5518878.

Target: Rhodopsin
Assay: Tango assay
Conditions: read off a plot

Row | Substance | response (ATR, parent: est. 0.39) | response (vehicle, parent: est. 0.08)
1 | human GRK1, full length, fused to the N-terminus of TEV protease (from UniProt Q15835) K46L | 0.71 | 0.18
2 | human GRK1, full length, fused to the N-terminus of TEV protease (from UniProt Q15835) K46Y | 0.76 | 0.17
3 | human GRK1, full length, fused to the N-terminus of TEV protease (from UniProt Q15835) K46W | 0.77 | 0.2
